The values below come from PMC12102759 (2025).

B1: RNF115 peptide 67-82 (E3 ubiquitin-protein ligase RNF115), 16-mer library wild type / MDM2 SWIB (MDM2 SWIB/MDM2 domain, residues 17-125) (parent complex)
chain 1: TTTHFAELWGHLDHTM
chain 2: SQIPASEQETLVRPKPLLLKLLKSVGAQKDTYTMKEVLFYLGQYIMTKRLYDEKQQHIVYCSNDLLGDLFGVPSFSVKEHRKIYTMIYRNLVVVNQQESSDSGTSVSEN

Variants of B1 are the subject of this assay. In words: proteomic peptide phage display deep mutational scan (ProP-PD DMS): M13 P8 16-mer library selected against immobilised GST-tagged bait for four days (rounds), NGS of the eluted pools per day and pseudo-replica; bait immobilised on MaxiSorp plates (10 µg), library pre-cleared on GST, 2 h binding at 4 °C, five washes; one round per day, days 1-4; value from days 2 and 3.
Regarding chain 1 L12A, the screen value was 0.000185 average fractional NGS count over selection days 2 and 3 (reads of this peptide / all reads for the bait, averaged over ….

Consider chain 1 L12N, for which the screen value is 0.000651 average fractional NGS count over selection days 2 and 3 (reads of this peptide / all reads for the bait, averaged over ….

chain 1 T15F: the screen value is 0.00191 average fractional NGS count over selection days 2 and 3 (reads of this peptide / all reads for the bait, averaged over ….

For the variant chain 1 T15V, the screen value is 0.00407 average fractional NGS count over selection days 2 and 3 (reads of this peptide / all reads for the bait, averaged over ….

Turning to chain 1 T15A, the screen value was 0.000886 average fractional NGS count over selection days 2 and 3 (reads of this peptide / all reads for the bait, averaged over ….

On to chain 1 T15S, for which the screen value is 0.000189 average fractional NGS count over selection days 2 and 3 (reads of this peptide / all reads for the bait, averaged over ….

On to chain 1 T15D, for which the screen value was 0.000245 average fractional NGS count over selection days 2 and 3 (reads of this peptide / all reads for the bait, averaged over ….

On to chain 1 T15Q, for which the screen value is 0.000103 average fractional NGS count over selection days 2 and 3 (reads of this peptide / all reads for the bait, averaged over ….

As to chain 1 H11A, the screen value was 0.0021 average fractional NGS count over selection days 2 and 3 (reads of this peptide / all reads for the bait, averaged over ….

On to chain 1 H11L, for which the screen value is 0.00334 average fractional NGS count over selection days 2 and 3 (reads of this peptide / all reads for the bait, averaged over ….

chain 1 H11W: the screen value was 0.00259 average fractional NGS count over selection days 2 and 3 (reads of this peptide / all reads for the bait, averaged over ….

As for chain 1 H11Y, the screen value is 0.00946 average fractional NGS count over selection days 2 and 3 (reads of this peptide / all reads for the bait, averaged over ….

Take chain 1 H11E: the screen value was 0.000714 average fractional NGS count over selection days 2 and 3 (reads of this peptide / all reads for the bait, averaged over ….

Consider chain 1 H11I, for which the screen value is 0.000552 average fractional NGS count over selection days 2 and 3 (reads of this peptide / all reads for the bait, averaged over ….

Take chain 1 H11R: the screen value is 0.000902 average fractional NGS count over selection days 2 and 3 (reads of this peptide / all reads for the bait, averaged over ….

As for chain 1 A6M, the screen value is 0.00215 average fractional NGS count over selection days 2 and 3 (reads of this peptide / all reads for the bait, averaged over ….

chain 1 A6E: the screen value is 0.000746 average fractional NGS count over selection days 2 and 3 (reads of this peptide / all reads for the bait, averaged over ….

In the case of chain 1 A6I, the screen value is 0.000155 average fractional NGS count over selection days 2 and 3 (reads of this peptide / all reads for the bait, averaged over ….

For chain 1 A6L, the screen value is 0.00496 average fractional NGS count over selection days 2 and 3 (reads of this peptide / all reads for the bait, averaged over ….

chain 1 H14G: the screen value was 0.00396 average fractional NGS count over selection days 2 and 3 (reads of this peptide / all reads for the bait, averaged over ….

With chain 1 H14W, the screen value was 0.00227 average fractional NGS count over selection days 2 and 3 (reads of this peptide / all reads for the bait, averaged over ….

Regarding chain 1 H14L, the screen value was 0.00317 average fractional NGS count over selection days 2 and 3 (reads of this peptide / all reads for the bait, averaged over ….

On to chain 1 H14Q, for which the screen value is 0.000199 average fractional NGS count over selection days 2 and 3 (reads of this peptide / all reads for the bait, averaged over ….

In the case of chain 1 H14N, the screen value was 0.00027 average fractional NGS count over selection days 2 and 3 (reads of this peptide / all reads for the bait, averaged over ….

On to chain 1 H14M, for which the screen value was 0.00126 average fractional NGS count over selection days 2 and 3 (reads of this peptide / all reads for the bait, averaged over ….

In the case of chain 1 H14I, the screen value was 0.00129 average fractional NGS count over selection days 2 and 3 (reads of this peptide / all reads for the bait, averaged over ….

chain 1 H14P: the screen value is 0.000471 average fractional NGS count over selection days 2 and 3 (reads of this peptide / all reads for the bait, averaged over ….

As for chain 1 H14F, the screen value is 0.00117 average fractional NGS count over selection days 2 and 3 (reads of this peptide / all reads for the bait, averaged over ….

Take chain 1 L8W: the screen value is 0.00339 average fractional NGS count over selection days 2 and 3 (reads of this peptide / all reads for the bait, averaged over ….

In the case of chain 1 L8M, the screen value was 0.000104 average fractional NGS count over selection days 2 and 3 (reads of this peptide / all reads for the bait, averaged over ….

With chain 1 L8I, the screen value is 7.89e-05 average fractional NGS count over selection days 2 and 3 (reads of this peptide / all reads for the bait, averaged over ….

Regarding chain 1 D13I, the screen value was 0.00102 average fractional NGS count over selection days 2 and 3 (reads of this peptide / all reads for the bait, averaged over ….

With chain 1 D13H, the screen value is 0.000247 average fractional NGS count over selection days 2 and 3 (reads of this peptide / all reads for the bait, averaged over ….

Take chain 1 D13L: the screen value is 0.00105 average fractional NGS count over selection days 2 and 3 (reads of this peptide / all reads for the bait, averaged over ….

Regarding chain 1 D13E, the screen value is 0.000754 average fractional NGS count over selection days 2 and 3 (reads of this peptide / all reads for the bait, averaged over ….

For the variant chain 1 D13Y, the screen value is 0.00726 average fractional NGS count over selection days 2 and 3 (reads of this peptide / all reads for the bait, averaged over ….

Turning to chain 1 F5T, the screen value was 7.7e-05 average fractional NGS count over selection days 2 and 3 (reads of this peptide / all reads for the bait, averaged over ….

With chain 1 H4Y, the screen value was 0.000766 average fractional NGS count over selection days 2 and 3 (reads of this peptide / all reads for the bait, averaged over ….

In the case of chain 1 H4Q, the screen value was 0.00071 average fractional NGS count over selection days 2 and 3 (reads of this peptide / all reads for the bait, averaged over ….

With chain 1 H4N, the screen value was 0.000308 average fractional NGS count over selection days 2 and 3 (reads of this peptide / all reads for the bait, averaged over ….

In the case of chain 1 H4E, the screen value is 0.000591 average fractional NGS count over selection days 2 and 3 (reads of this peptide / all reads for the bait, averaged over ….

chain 1 H4M: the screen value was 0.000847 average fractional NGS count over selection days 2 and 3 (reads of this peptide / all reads for the bait, averaged over ….

For chain 1 H4P, the screen value is 0.000821 average fractional NGS count over selection days 2 and 3 (reads of this peptide / all reads for the bait, averaged over ….

On to chain 1 H4K, for which the screen value was 0.000298 average fractional NGS count over selection days 2 and 3 (reads of this peptide / all reads for the bait, averaged over ….

With chain 1 H4S, the screen value is 0.0034 average fractional NGS count over selection days 2 and 3 (reads of this peptide / all reads for the bait, averaged over ….

For the variant chain 1 H4T, the screen value was 0.002 average fractional NGS count over selection days 2 and 3 (reads of this peptide / all reads for the bait, averaged over ….

On to chain 1 H4V, for which the screen value was 0.000238 average fractional NGS count over selection days 2 and 3 (reads of this peptide / all reads for the bait, averaged over ….

As for chain 1 G10Q, the screen value is 0.000894 average fractional NGS count over selection days 2 and 3 (reads of this peptide / all reads for the bait, averaged over ….

Regarding chain 1 G10S, the screen value is 0.00615 average fractional NGS count over selection days 2 and 3 (reads of this peptide / all reads for the bait, averaged over ….

Take chain 1 G10W: the screen value was 0.000571 average fractional NGS count over selection days 2 and 3 (reads of this peptide / all reads for the bait, averaged over ….

In the case of chain 1 G10T, the screen value is 0.000148 average fractional NGS count over selection days 2 and 3 (reads of this peptide / all reads for the bait, averaged over ….

As for chain 1 G10I, the screen value was 7.33e-05 average fractional NGS count over selection days 2 and 3 (reads of this peptide / all reads for the bait, averaged over ….

For the variant chain 1 G10Y, the screen value is 0.000227 average fractional NGS count over selection days 2 and 3 (reads of this peptide / all reads for the bait, averaged over ….

On to chain 1 T2Y, for which the screen value is 0.000215 average fractional NGS count over selection days 2 and 3 (reads of this peptide / all reads for the bait, averaged over ….

On to chain 1 T2I, for which the screen value is 0.00157 average fractional NGS count over selection days 2 and 3 (reads of this peptide / all reads for the bait, averaged over ….

Take chain 1 T2P: the screen value is 0.000494 average fractional NGS count over selection days 2 and 3 (reads of this peptide / all reads for the bait, averaged over ….

For the variant chain 1 T2S, the screen value was 0.000484 average fractional NGS count over selection days 2 and 3 (reads of this peptide / all reads for the bait, averaged over ….

For chain 1 T2H, the screen value was 0.000527 average fractional NGS count over selection days 2 and 3 (reads of this peptide / all reads for the bait, averaged over ….

For the variant chain 1 T2E, the screen value is 0.0056 average fractional NGS count over selection days 2 and 3 (reads of this peptide / all reads for the bait, averaged over ….

For the variant chain 1 T2Q, the screen value was 0.00139 average fractional NGS count over selection days 2 and 3 (reads of this peptide / all reads for the bait, averaged over ….

As for chain 1 T2G, the screen value was 0.00135 average fractional NGS count over selection days 2 and 3 (reads of this peptide / all reads for the bait, averaged over ….

For the variant chain 1 T2A, the screen value is 0.00136 average fractional NGS count over selection days 2 and 3 (reads of this peptide / all reads for the bait, averaged over ….

As to chain 1 T2V, the screen value is 0.000589 average fractional NGS count over selection days 2 and 3 (reads of this peptide / all reads for the bait, averaged over ….

As for chain 1 M16Y, the screen value is 0.000534 average fractional NGS count over selection days 2 and 3 (reads of this peptide / all reads for the bait, averaged over ….

For the variant chain 1 M16P, the screen value was 0.000227 average fractional NGS count over selection days 2 and 3 (reads of this peptide / all reads for the bait, averaged over ….

On to chain 1 M16Q, for which the screen value was 0.000223 average fractional NGS count over selection days 2 and 3 (reads of this peptide / all reads for the bait, averaged over ….

In the case of chain 1 M16I, the screen value is 0.000492 average fractional NGS count over selection days 2 and 3 (reads of this peptide / all reads for the bait, averaged over ….

chain 1 M16V: the screen value was 0.00172 average fractional NGS count over selection days 2 and 3 (reads of this peptide / all reads for the bait, averaged over ….

As for chain 1 M16E, the screen value is 0.000437 average fractional NGS count over selection days 2 and 3 (reads of this peptide / all reads for the bait, averaged over ….

As for chain 1 M16L, the screen value was 0.0016 average fractional NGS count over selection days 2 and 3 (reads of this peptide / all reads for the bait, averaged over ….

Take chain 1 M16F: the screen value is 0.000243 average fractional NGS count over selection days 2 and 3 (reads of this peptide / all reads for the bait, averaged over ….

As to chain 1 M16A, the screen value is 9.05e-05 average fractional NGS count over selection days 2 and 3 (reads of this peptide / all reads for the bait, averaged over ….

As for chain 1 T3P, the screen value was 0.000694 average fractional NGS count over selection days 2 and 3 (reads of this peptide / all reads for the bait, averaged over ….

Regarding chain 1 T3W, the screen value was 0.00105 average fractional NGS count over selection days 2 and 3 (reads of this peptide / all reads for the bait, averaged over ….

Consider chain 1 T3F, for which the screen value was 0.000452 average fractional NGS count over selection days 2 and 3 (reads of this peptide / all reads for the bait, averaged over ….
